In patent US6958236B2, “Control of gene expression in plants” (priority 2000, dated 2005):

Tested on: pCGS154 reporter
Experiment: Transient transfection of S2 Drosophila cells with luciferase reporter and EcR receptor plasmids
Type: cell-based
Details: for Assay # 1 Fold Activation With Chemistry / Assay # 2 Fold Activation With Chemistry: Example 6, 0.2 μM tebufenozide vs without chemistry, normalized to pCGS154 reporter without receptor; for No Chemistry (luciferase activity as ratio to pCGS154 reporter without chemistry): reporter CGS154, no chemical ligand
Protocol: An in vivo cell based assay is designed to measure transcriptional activation by the receptors of a reporter plasmid. S2 Drosophila cells (ATCC CRL-1963) are transiently transfected with luciferase reporter and receptor expression plasmids using the calcium phosphate precipitation procedure (Di Nocera and David (1983) PNAS 80, 7095-7098). S2 cells are plated in 96 well format at a density of 2×10^5 in 166.6 μl of Schneider's Drosophila media supplemented with antibiotics and 10% heat inactivated fetal bovine serum (GIBO-BRL). The following day, 33.4 μl of a calcium phosphate precipitate containing 3-6 ng of pCGS154 reporter plasmid, 3-6 ng of EcR receptor plasmid along with salmon sperm DNA to a total of 400 ng DNA per well is added. Chemical ligands are added 16-24 hours after DNA addition to the cells. Cells are then harvested and extracted 24 hours after chemistry addition following the procedures for the luciferase assay by centrifuging and resuspending the cell pellets in 100 μl of cell culture lysis reagent (Promega). Luciferase activity is quantitated using chemiluminescence (Promega) using an analytical luminescence model 2001 luminometer.
S2 cells contain Drosophila EcR and USP. The endogenous USP can be used as the heterodimerization partner for EcR or exogenous USP expression plasmid can be added to the assay.
To compare the activities of Manduca and Drosophila EcR, S2 cells are transiently transfected using the above procedure with the reporter plasmid pCGS 154 and either full-length Drosophila EcR, DDV, full-length Manduca EcR, or MMV. Tebufenozide at 0.2 µM and 2 μM is used as the chemical ligand. Luciferase assays are performed as described above. All of the results are normalized as a ratio of activity to the light unit value for the pCGS154 reporter without chemistry.
The activities of the EcR-VP16 chimeras are compared by transiently transfecting S2 cells as described in Example 3. Tebufenozide is added to the cells at 0.2 μM concentration. Results are expressed as fold activation, a ratio of the activity of the constructs with chemistry added as compared to activity of the constructs without chemistry. All results are normalized to the luciferase activity of the pCGS154 reporter without receptor addition.
(§1) The activities of the EcR-VP16 chimeras are compared by transiently transfecting S2 cells as in Example 3. Tebufenozide is added to the cells at 0.2 μM concentration. Results are expressed as fold activation of constructs with chemistry as compared to without chemistry. All results are normalized to the luciferase activity of the pCGS154 reporter without receptor.
as §1, with “chemistry addition.” for “chemistry.”

B1: DMV: EcR chimera: Drosophila melanogaster C+D domains, Manduca sexta E domain, VP16; SEQ ID NO:71-72 (protein)
chain: MGRDDLSPSSSLNGYSANESCDAKKSKKGPAPRVQEELCLVCGDRASGYHYNALTCEGCKGFFRRSVTKSAVYCCKFGRACEMDMYMRRKCQECRLKKCLAVGMRPECVVPENQCAMKRREKKAQKEKDKMTTSPSSQHGGNGSLASGGGQDFVKKEILDLMTCEPPQHATIPLLPDEILAKCQARNIPSLTYNQLAVIYKLIWYQEGYEQPSEEDLKRVTQTWQLEEEEEEETDMPFRQITEMTILTVQLIVEFAKGLPGFSKISQSDQITLLKASSSEVMMLRVARRYDAATDSVLFANNQAYTRDNYRKAGMSYVIEDLLHFCRCMYSMSMDNVHYALLTAIVIFSDRPGLEQPLLVEEIQRYYLKTLRVYILNQHSASPRCAVLFGKILGVLTELRTLGTQNSNMCISLKLKNRKLPPFLEEIWDVAEVSTTKLAPPTDVSLGDELHLDGEDVAMAHADALDDFDLDMLGDGDSPGPGFTPHDSAPYGALDMADFEFEQMFTDALGIDEYGG
Assay # 1 Fold Activation With Chemistry: 8.67 fold
Assay # 2 Fold Activation With Chemistry: 3.72 fold

B2: LMV: EcR chimera: Locusta migratoria C+D domains, Manduca sexta E domain, VP16; SEQ ID NO:83-84 (protein)
chain: MGREDLSPLSSLNGYSADSCDAKKKKGAAPRQQEELCLVCGDRASGYHYNALTCEGCKGFFRRSITKNAVYQCKYGNNCEIDMYMRRKCQECRLKKCLTVGMRPECVVPEYQCAVKRKEKKAQKDKDKPNSTTNGSPEVMMLKDIDAKVEPERPLSNGIKPVSPEQEELIHRLVWYQEGYEQPSEEDLKRVTQTWQLEEEEEEETDMPFRQITEMTILTVQLIVEFAKGLPGFSKISQSDQITLLKASSSEVMMLRVARRYDAATDSVLFANNQAYTRDNYRKAGMSYVIEDLLHFCRCMYSMSMDNVHYALLTAIVIFSDRPGLEQPLLVEEIQRYYLKTLRVYILNQHSASPRCAVLFGKILGVLTELRTLGTQNSNMCISLKLKNRKLPPFLEEIWDVAEVSTTKLAPPTDVSLGDELHLDGEDVAMAHADALDDFDLDMLGDGDSPGPGFTPHDSAPYGALDMADFEFEQMFTDALGIDEYGG
Fold Activation With Chemistry (Example 6, third column (LLV, LMV), 0.2 μM tebufenozide): 48.8 fold

B3: MMV: EcR chimera: Manduca sexta C+D and E domains, VP16; SEQ ID NO:93-94 (protein)
chain: MGREELSPASSINGCSTDGEPRRQKKGPAPRQQEELCLVCGDRASGYHYNALTCEGCKGFFRRSVTKNAVYICKFGHACEMDMYMRRKCQECRLKKCLAVGMRPECVVPESTCKNKRREKEAQREKDKLPVSTTTVDDHMPAIMQCDPPPPEAARIHEVVPRFLTEKLMEQNRLKNVTPLSANQKSLIARLVWYQEGYEQPSEEDLKRVTQTWQLEEEEEEETDMPFRQITEMTILTVQLIVEFAKGLPGFSKISQSDQITLLKASSSEVMMLRVARRYDAATDSVLFANNQAYTRDNYRKAGMSYVIEDLLHFCRCMYSMSMDNVHYALLTAIVIFSDRPGLEQPLLVEEIQRYYLKTLRVYILNQHSASPRCAVLFGKILGVLTELRTLGTQNSNMCISLKLKNRKLPPFLEEIWDVAEVSTTKLAPPTDVSLGDELHLDGEDVAMAHADALDDFDLDMLGDGDSPGPGFTPHDSAPYGALDMADFEFEQMFTDALGIDEYGG
Assay # 1 Fold Activation With Chemistry: 87.65 fold
Assay # 2 Fold Activation With Chemistry: 151.06 fold
Fold Activation With Chemistry Assay #1 (Example 7, 0.2 μM tebufenozide): 719.2 fold
Fold Activation With Chemistry Assay #2 (Example 7, 0.2 μM tebufenozide): 595.1 fold
No Chemistry (luciferase activity as ratio to pCGS154 reporter without chemistry): 1

B4: DDV: EcR chimera: Drosophila melanogaster C+D and E domains, VP16; SEQ ID NO:95-96 (protein)
chain: MGRDDLSPSSSLNGYSANESCDAKKSKKGPAPRVQEELCLVCGDRASGYHYNALTCEGCKGFFRRSVTKSAVYCCKFGRACEMDMYMRRKCQECRLKKCLAVGMRPECVVPENQCAMKRREKKAQKEKDKMTTSPSSQHGGNGSLASGGGQDFVKKEILDLMTCEPPQHATIPLLPDEILAKCQARNIPSLTYNQLAVIYKLIWYQDGYEQPSEEDLRRIMSQPDENESQTDVSFRHITEITILTVQLIVEFAKGLPAFTKIPQEDQITLLKACSSEVMMLRMARRYDHSSDSIFFANNRSYTRDSYKMAGMADNIEDLLHFCRQMFSMKVDNVEYALLTAIVIFSDRPGLEKAQLVEAIQSYYIDTLRIYILNRHCGDSMSLVFYAKLLSILTELRTLGNQNAEMCFSLKLKNRKLPKFLEEIWDVHAIPPKLAPPTDVSLGDELHLDGEDVAMAHADALDDFDLDMLGDGDSPGPGFTPHDSAPYGALDMADFEFEQMFTDALGIDEYGG
Assay # 1 Fold Activation With Chemistry: 1.01 fold
Assay # 2 Fold Activation With Chemistry: 0.68 fold
No Chemistry (luciferase activity as ratio to pCGS154 reporter without chemistry): 1

B5: MaFL: full-length Manduca EcR expression cassette in pPacU (protein, UniProt P49883 1-556, looked up)
chain: MRRRWSNNGCFPLRMFEESSSEVTSSSAFGMPAAMVMSPESLASPEYGGLELWSYDETMTNYPAQSLLGACNAPQQQQQQQQQQPSAQPLPSMPLPMPPTTPKSENESMSSGREELSPASSINGCSTDGEPRRQKKGPAPRQQEELCLVCGDRASGYHYNALTCEGCKGFFRRSVTKNAVYICKFGHACEMDMYMRRKCQECRLKKCLAVGMRPECVVPESTCKNKRREKEAQREKDKLPVSTTTVDDHMPAIMQCDPPPPEAARIHEVVPRFLTEKLMEQNRLKNVTPLSANQKSLIARLVWYQEGYEQPSEEDLKRVTQTWQLEEEEEEETDMPFRQITEMTILTVQLIVEFAKGLPGFSKISQSDQITLLKASSSEVMMLRVARRYDAATDSVLFANNQAYTRDNYRKAGMSYVIEDLLHFCRCMYSMSMDNVHYALLTAIVIFSDRPGLEQPLLVEEIQRYYLKTLRVYILNQHSASPRCAVLFGKILGVLTELRTLGTQNSNMCISLKLKNRKLPPFLEEIWDVAEVSTTQPTPGVAAQVTPIVVDNPAAL
modifications: full-length
notes: full-length Manduca EcR expression cassette in pPacU
No Chemistry (luciferase activity as ratio to pCGS154 reporter without chemistry): 1

B6: DrosFL: full-length Drosophila EcR expression cassette in pPacU (protein, UniProt P34021 1-878, looked up)
chain: MKRRWSNNGGFMRLPEESSSEVTSSSNGLVLPSGVNMSPSSLDSHDYCDQDLWLCGNESGSFGGSNGHGLSQQQQSVITLAMHGCSSTLPAQTTIIPINGNANGNGGSTNGQYVPGATNLGALANGMLNGGFNGMQQQIQNGHGLINSTTPSTPTTPLHLQQNLGGAGGGGIGGMGILHHANGTPNGLIGVVGGGGGVGLGVGGGGVGGLGMQHTPRSDSVNSISSGRDDLSPSSSLNGYSANESCDAKKSKKGPAPRVQEELCLVCGDRASGYHYNALTCEGCKGFFRRSVTKSAVYCCKFGRACEMDMYMRRKCQECRLKKCLAVGMRPECVVPENQCAMKRREKKAQKEKDKMTTSPSSQHGGNGSLASGGGQDFVKKEILDLMTCEPPQHATIPLLPDEILAKCQARNIPSLTYNQLAVIYKLIWYQDGYEQPSEEDLRRIMSQPDENESQTDVSFRHITEITILTVQLIVEFAKGLPAFTKIPQEDQITLLKACSSEVMMLRMARRYDHSSDSIFFANNRSYTRDSYKMAGMADNIEDLLHFCRQMFSMKVDNVEYALLTAIVIFSDRPGLEKAQLVEAIQSYYIDTLRIYILNRHCGDSMSLVFYAKLLSILTELRTLGNQNAEMCFSLKLKNRKLPKFLEEIWDVHAIPPSVQSHLQITQEENERLERAERMRASVGGAITAGIDCDSASTSAAAAAAQHQPQPQPQPQPSSLTQNDSQHQTQPQLQPQLPPQLQGQLQPQLQPQLQTQLQPQIQPQPQLLPVSAPVPASVTAPGSLSAVSTSSEYMGGSAAIGPITPATTSSITAAVTASSTTSAVPMGNGVGVGVGVGGNVSMYANAQTAMALMGVALHSHQEQLIGGVAVKSEHSTTA
modifications: full-length
notes: full-length Drosophila EcR expression cassette in pPacU
No Chemistry (luciferase activity as ratio to pCGS154 reporter without chemistry): 1
